Measured values published in the supplement of paper PMC9732359.
± gives the uncertainty stated by the source.

Assay: protein stability index of a GFP-peptide fusion (yeast GPS) (PSI 1-4); higher = more stable; sorted into four equal gates, so the index is relative within each strain
Settings: doa10∆
How it was run: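 Plasmids isolated from each sorting gate were PCR-amplified and Illumina-sequenced, and barcodes assigned the reads to strains. The gates, four of equal size, were set by GFP/Cherry fluorescence ratio on mid-log cultures in leucine-free medium. These cultures were yeast carrying a pooled library of tiled 17-residue yeast protein peptides fused downstream of GFP on a plasmid that also expresses Cherry. The protein stability index is the sum of every gate's read frequency times its gate number.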

| Sequence | protein stability index |
| --- | --- |
| FKLPKKFPPPTPLLENI [BRR2] | 2.44 ± 0.062 |
| FKLSSESVIEQIVKYAR [RPS13] | 2.54 ± 0.1 |
| FKNTRETAQAINGWELT [RPL17A] | 1.35 ± 0.031 |
| FKSTMLQVSEKDLFELE [ARP7] | 1.25 ± 0.089 |
| FLARVIKEKFDEFIKTH [IRR1] | 2.79 ± 0.081 |
| FLELTRRADVKTATVKI [RPL38] | 1.67 ± 0.05 |
| FLKEKDTVAELQAQLDY [FAS2] | 2.88 ± 0.091 |
| FLKYYGAHKFLDTYLPE [SIR2] | 1.66 ± 0.06 |
| FLLVPSKQVQVSQQPLS [ECM29] | 1.81 ± 0.092 |
| FLNEARDKAGRLAEVNL [RPO21] | 2.05 ± 0.074 |
| FLNHAFDYMNRYWVQKE [CDC53] | 2.1 ± 0.056 |
| FLSQGLHVVITLLREVV [CSN12] | 1.49 ± 0.06 |
| FLYEILSSLKSFAIYSS [SRB8] | 1.24 ± 0.053 |
| FMHDPSVFYNIANMVLP [SIR2] | 2 ± 0.05 |
| FMRQNLEWNMANLLFKK [RPC82] | 2.82 ± 0.11 |
| FNFVLLGQIGACHVEVP [COB] | 1.43 ± 0.085 |
| FNLISNAGTEKEKESKK [YLR335W/NUP2] | 3.41 ± 0.077 |
| FNNQGKLDLFKYFTELS [MED1] | 3.07 ± 0.092 |
| FNRENKVSPADAAKKAL [RPS26A] | 3.42 ± 0.13 |
| FNTNFDDEFGDLDAVFF [SNF6] | 3 ± 0.076 |
| FPLCVHLVSNELEQLSS [RPL10] | 2.7 ± 0.079 |
| FPRTRFEAQIDSVEFIF [RPN10] | 2.61 ± 0.11 |
| FQLIDMKDKEINIQKYN [CSI1] | 2.47 ± 0.17 |
| FQLVNDVMDELITSSAR [SIR3] | 3.36 ± 0.14 |
| FQQQQQQQQQQQQPQPQ [PGD1] | 2.21 ± 0.11 |
| FQVSNVISLGPNLATFI [YJL039C/NUP192] | 1.76 ± 0.14 |

| Sequence | protein stability index |
| --- | --- |
| FREAIVATEPLLDILVK [PRP8] | 1.86 ± 0.047 |
| FRENMSKEETVDFIKHS [PRE3] | 3.11 ± 0.086 |
| FRFDSIQRETLLPTNNG [GRR1] | 2.59 ± 0.047 |
| FRGARKNKGLVVSPYDY [DIB1] | 2.58 ± 0.077 |
| FRKIKLRVDEVQGKNLL [RPS1A] | 2.96 ± 0.12 |
| FSEGTSADREIQRTLME [RPT4] | 3.41 ± 0.14 |
| FSERAAMFAALQQKQQQ [SWI1] | 1.7 ± 0.042 |
| FSSPAALMKTLIKFVDL [NUT1] | 1.98 ± 0.083 |
| FSWGRPADSTYGAYNTQ [PRE4] | 2.75 ± 0.081 |
| FTCSCNSLTVDGNNANY [RPN14] | 2.8 ± 0.074 |
| FTGDFLRRVEERFTKSK [FAS1] | 3.29 ± 0.14 |
| FTIDAKPPISDSVFSFG [YLR335W/NUP2] | 3.13 ± 0.054 |
| FTLKQWNRLTISVTDTE [COR1] | 1.32 ± 0.049 |
| FTNLGIIVQYLTKFRQK [RGR1] | 2.46 ± 0.053 |
| FTNRIPSKTPEVYMRYR [SWI3] | 2.08 ± 0.052 |
| FTPEEEAAIRRENEWAE [SKP1] | 3.01 ± 0.11 |
| FTPKLIYDFITLFSSIE [ECM29] | 2.06 ± 0.073 |
| FTQPALTLMEKAAFEDL [FAS1] | 2.74 ± 0.1 |
| FTVNVLYPDSSSFKKNL [RPN3] | 2.08 ± 0.057 |
| FVDLVEHFLKLNIDFGS [YML103C/NUP188] | 2.53 ± 0.067 |
| FVPNDGCLNFVDENDEV [RPS23A] | 2.94 ± 0.063 |
| FVPVPSLAGFHKVQTKL [RPS7A] | 2.53 ± 0.075 |
| FYMLNAGIRPKFILALN [RPN1] | 2.22 ± 0.16 |
| GAAGAWMMNGALQILNS [FAS2] | 1.48 ± 0.046 |
| GADVTNTTQDNGGDKEL [YCS4] | 3.18 ± 0.12 |
| GAHGNSDPVCLFVCNKD [POP3] | 3 ± 0.098 |

| Sequence | protein stability index |
| --- | --- |
| GAISAVAATNTPIIFIG [SRP54] | 2.85 ± 0.085 |
| GAKVKTMRRQKLTILQE [RET1] | 1.43 ± 0.088 |
| GALDVEGLCIVAGSKCW [RRP45] | 2.83 ± 0.12 |
| GANDLGFTASVSNQENA [MED1] | 3.06 ± 0.083 |
| GASTGNANTGFSFGGTQ [YGL172W/NUP49] | 2.06 ± 0.067 |
| GAVGLKDLTLCRYSCLA [YCS4] | 2.4 ± 0.095 |
| GCGTVKRFNIGADPNYR [RPR2] | 3.15 ± 0.12 |
| GCSKICDLSSKFNKSKA [YCS4] | 3.08 ± 0.087 |
| GDDVVNDVQGIDDVQTI [RPP1] | 3.2 ± 0.15 |
| GDHSSVPVALKGQGPFT [YMR129W/POM152] | 1.87 ± 0.25 |
| GDTVRILDTSQSESRQK [SNU114] | 2.81 ± 0.051 |
| GDVKNMEDVKIQKEEEP [SWI3] | 3.45 ± 0.14 |
| GDYDSHDISRYVRAKFL [PRP8] | 2.08 ± 0.077 |
| GEEDAVDLLLEIESIDK [RPN1] | 3.25 ± 0.11 |
| GEITFDGIGGLTEQIRE [RPT4] | 3.34 ± 0.12 |
| GESIMSEEPTDFGFDLD [MCD1] | 3.1 ± 0.13 |
| GFEQVKIALGSPIVNVL [RRI2] | 1.56 ± 0.15 |
| GFERLTVNEPQMSDKHA [SRB7] | 3.06 ± 0.12 |
| GFETSKNIKIIMATNRL [RPT6] | 2.87 ± 0.15 |
| GFFENIETEFLLFTVKL [IRR1] | 3.12 ± 0.077 |
| GFKTPKTAIEGSYIDKK [RPS11A] | 2.98 ± 0.043 |
| GFNMKKITTSTEDQKVT [SRP68] | 2.84 ± 0.065 |
| GFNSIWKIPQNDIPQTE [SSN2] | 3.09 ± 0.19 |
| GGGAARRQAVDVSPLRR [RPS5] | 2.28 ± 0.1 |

Same assay, conditions: pdr5∆

| Sequence | protein stability index |
| --- | --- |
| FKLPKKFPPPTPLLENI [BRR2] | 2.72 ± 0.067 |
| FKLSSESVIEQIVKYAR [RPS13] | 2.97 ± 0.11 |
| FKNTRETAQAINGWELT [RPL17A] | 1.58 ± 0.04 |
| FKSTMLQVSEKDLFELE [ARP7] | 2.49 ± 0.11 |
| FLARVIKEKFDEFIKTH [IRR1] | 2.83 ± 0.08 |
| FLELTRRADVKTATVKI [RPL38] | 1.77 ± 0.041 |
| FLKEKDTVAELQAQLDY [FAS2] | 3.07 ± 0.11 |
| FLKYYGAHKFLDTYLPE [SIR2] | 1.77 ± 0.061 |
| FLLVPSKQVQVSQQPLS [ECM29] | 1.92 ± 0.072 |
| FLNEARDKAGRLAEVNL [RPO21] | 1.55 ± 0.054 |
| FLNHAFDYMNRYWVQKE [CDC53] | 2.48 ± 0.056 |
| FLSQGLHVVITLLREVV [CSN12] | 1.73 ± 0.059 |
| FLYEILSSLKSFAIYSS [SRB8] | 1.16 ± 0.038 |
| FMHDPSVFYNIANMVLP [SIR2] | 2.03 ± 0.04 |
| FMRQNLEWNMANLLFKK [RPC82] | 1.94 ± 0.055 |
| FNFVLLGQIGACHVEVP [COB] | 1.88 ± 0.071 |
| FNLISNAGTEKEKESKK [YLR335W/NUP2] | 3.35 ± 0.063 |
| FNNQGKLDLFKYFTELS [MED1] | 2.83 ± 0.072 |
| FNRENKVSPADAAKKAL [RPS26A] | 3.01 ± 0.14 |
| FNTNFDDEFGDLDAVFF [SNF6] | 2.96 ± 0.059 |
| FPLCVHLVSNELEQLSS [RPL10] | 2.71 ± 0.065 |
| FPRTRFEAQIDSVEFIF [RPN10] | 2.88 ± 0.066 |
| FQKETNMKVTILHGSKS [PRP28] | 3.38 ± 0.29 |
| FQLIDMKDKEINIQKYN [CSI1] | 1.98 ± 0.11 |
| FQLVNDVMDELITSSAR [SIR3] | 2.9 ± 0.087 |
| FQQQQQQQQQQQQPQPQ [PGD1] | 2.7 ± 0.11 |

| Sequence | protein stability index |
| --- | --- |
| FQVHERLAPLIKEENDM [ARP7] | 3.58 ± 0.17 |
| FQVSNVISLGPNLATFI [YJL039C/NUP192] | 1.99 ± 0.11 |
| FREAIVATEPLLDILVK [PRP8] | 2.16 ± 0.043 |
| FRENMSKEETVDFIKHS [PRE3] | 3.19 ± 0.086 |
| FRFDSIQRETLLPTNNG [GRR1] | 2.67 ± 0.053 |
| FRGARKNKGLVVSPYDY [DIB1] | 2.54 ± 0.088 |
| FRKIKLRVDEVQGKNLL [RPS1A] | 3.48 ± 0.12 |
| FSEGTSADREIQRTLME [RPT4] | 3.46 ± 0.084 |
| FSERAAMFAALQQKQQQ [SWI1] | 2.15 ± 0.042 |
| FSSPAALMKTLIKFVDL [NUT1] | 1.68 ± 0.057 |
| FSWGRPADSTYGAYNTQ [PRE4] | 2.68 ± 0.064 |
| FTCSCNSLTVDGNNANY [RPN14] | 2.81 ± 0.076 |
| FTGDFLRRVEERFTKSK [FAS1] | 3.6 ± 0.16 |
| FTIDAKPPISDSVFSFG [YLR335W/NUP2] | 2.75 ± 0.047 |
| FTLKQWNRLTISVTDTE [COR1] | 1.22 ± 0.04 |
| FTNLGIIVQYLTKFRQK [RGR1] | 2.64 ± 0.087 |
| FTNRIPSKTPEVYMRYR [SWI3] | 1.88 ± 0.057 |
| FTPEEEAAIRRENEWAE [SKP1] | 3.25 ± 0.096 |
| FTPKLIYDFITLFSSIE [ECM29] | 2.1 ± 0.056 |
| FTQPALTLMEKAAFEDL [FAS1] | 2.33 ± 0.078 |
| FTVNVLYPDSSSFKKNL [RPN3] | 2.59 ± 0.067 |
| FVDLVEHFLKLNIDFGS [YML103C/NUP188] | 2.46 ± 0.06 |
| FVPNDGCLNFVDENDEV [RPS23A] | 3.04 ± 0.071 |
| FVPVPSLAGFHKVQTKL [RPS7A] | 2.71 ± 0.081 |
| FYLYMLVQKFGGADQVT [SWI1] | 1.35 ± 0.19 |
| FYMLNAGIRPKFILALN [RPN1] | 1.81 ± 0.078 |

| Sequence | protein stability index |
| --- | --- |
| GAAGAWMMNGALQILNS [FAS2] | 1.65 ± 0.064 |
| GADVTNTTQDNGGDKEL [YCS4] | 3.19 ± 0.083 |
| GAHGNSDPVCLFVCNKD [POP3] | 3.37 ± 0.12 |
| GAISAVAATNTPIIFIG [SRP54] | 3.42 ± 0.17 |
| GAKVKTMRRQKLTILQE [RET1] | 2.35 ± 0.06 |
| GALDVEGLCIVAGSKCW [RRP45] | 2.96 ± 0.11 |
| GANDLGFTASVSNQENA [MED1] | 3.17 ± 0.11 |
| GASTGNANTGFSFGGTQ [YGL172W/NUP49] | 2.12 ± 0.054 |
| GAVGLKDLTLCRYSCLA [YCS4] | 2.42 ± 0.1 |
| GCGTVKRFNIGADPNYR [RPR2] | 3.36 ± 0.092 |
| GCSKICDLSSKFNKSKA [YCS4] | 2.82 ± 0.093 |
| GDDVVNDVQGIDDVQTI [RPP1] | 3.46 ± 0.14 |
| GDTVRILDTSQSESRQK [SNU114] | 2.96 ± 0.054 |
| GDVKNMEDVKIQKEEEP [SWI3] | 3.4 ± 0.2 |
| GDYDSHDISRYVRAKFL [PRP8] | 2.11 ± 0.086 |
| GEEDAVDLLLEIESIDK [RPN1] | 3.08 ± 0.14 |
| GEITFDGIGGLTEQIRE [RPT4] | 3.45 ± 0.099 |
| GESIMSEEPTDFGFDLD [MCD1] | 3.25 ± 0.17 |
| GFEQVKIALGSPIVNVL [RRI2] | 2.78 ± 0.2 |
| GFERLTVNEPQMSDKHA [SRB7] | 3.36 ± 0.082 |
| GFETSKNIKIIMATNRL [RPT6] | 2.54 ± 0.084 |
| GFFENIETEFLLFTVKL [IRR1] | 3.2 ± 0.11 |
| GFKTPKTAIEGSYIDKK [RPS11A] | 3.21 ± 0.052 |
| GFNMKKITTSTEDQKVT [SRP68] | 2.67 ± 0.051 |
| GFNSIWKIPQNDIPQTE [SSN2] | 3.28 ± 0.28 |
| GGGAARRQAVDVSPLRR [RPS5] | 1.76 ± 0.056 |
